From PMC8202330 (2021)

B1: MYC-SCOC (isoform 3) WT [human] / GFP-GABARAP [not stated] (parent complex)
chain 1: MDGSRKEEEEDSTFTNISLADDIDHSSRILYPRPKSLLPKMMNADMDVDAENQVELEEKTRLINQVLELQHTLEDLSARVDAVKEENLKLKSENQVLGQYIENLMSASSVFQTTDTKSKRK
chain 2: MKFVYKEEHPFEKRRSEGEKIRKKYPDRVPVIVEKAPKARIGDLDKKKYLVPSDLTVGQFYFLIRKRIHLRAEDALFFFVNNVIPPTSATMGQLYQEHHEEDFFLYIAYSDESVYGL

Variants of: B1
Assay: GFP-Trap immunoprecipitation, Western blot quantification; HEK293A lysates mixed prior to IP; mean ± s.d.; n = 3; read off a plot

Row | Variant | response [% binding]
1 | chain 1 S18E | ~18
2 | chain 1 S12E, chain 1 T13E, chain 1 T15E, chain 1 S18E | ~100
3 | chain 1 S12E, chain 1 T15E | ~63
